B1: recombinant growth and differentiation factor 11 (GDF11) (ligand)
chain: NLGLDCDEHSSESRCCRYPLTVDFEAFGWDWIIAPKRYKANYCSGQCEYMFMQKYPHTHLVQQANPRGSAGPCCTPTKMSPINMLYFNDKQQIIYGKIPGMVVDRCGCS
B2: recombinant activin A (ligand)
chain: GLECDGKVNICCKKQFFVSFKDIGWNDWIIAPSGYHANYCEGECPSHIAGTSGSSLSFHSTVINHYRMRGHSPFANLKSCCVPTKLRPMSMLYYDDGQNIIKKDIQNMIVEECGCS

The target in the experiment is activin type II B receptor (ActRIIB) (human (endogenous in HEK293T)) (UniProt Q13705).
Chain of UniProt Q13705 (Q13705 19-512): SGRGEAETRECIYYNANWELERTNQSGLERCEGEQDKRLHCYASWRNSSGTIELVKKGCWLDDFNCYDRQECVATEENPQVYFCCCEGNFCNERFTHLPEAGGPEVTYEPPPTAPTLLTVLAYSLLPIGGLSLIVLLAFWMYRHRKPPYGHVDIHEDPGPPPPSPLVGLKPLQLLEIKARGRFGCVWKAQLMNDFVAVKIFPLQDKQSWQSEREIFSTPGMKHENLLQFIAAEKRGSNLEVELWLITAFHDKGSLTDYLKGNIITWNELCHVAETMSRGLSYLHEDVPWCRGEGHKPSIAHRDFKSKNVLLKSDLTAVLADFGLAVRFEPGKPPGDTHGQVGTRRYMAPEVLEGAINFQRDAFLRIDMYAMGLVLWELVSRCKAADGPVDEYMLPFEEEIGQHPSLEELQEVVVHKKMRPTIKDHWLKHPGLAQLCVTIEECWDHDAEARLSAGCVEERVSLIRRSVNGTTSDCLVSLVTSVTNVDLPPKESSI
For the molecule “recombinant myostatin (Mstn) (from UniProt O14793 267-375) (ligand)”, the p-SMAD2/3 AlphaLISA response of HEK293T cells after 1 h of ligand; potency of the ligand with 100 nM anti-ActRIIB (murinized BYM338) applied overnight against 0 nM antibody is above 100 fold.

For B1, the p-SMAD2/3 AlphaLISA response of HEK293T cells after 1 h of ligand; potency of the ligand with 100 nM anti-ActRIIB (murinized BYM338) applied overnight against 0 nM antibody was determined as 100 fold.

B2 registered a p-SMAD2/3 AlphaLISA response of HEK293T cells after 1 h of ligand; potency of the ligand with 100 nM anti-ActRIIB (murinized BYM338) applied overnight against 0 nM antibody above 100 fold.

The values are drawn from PMC5376753.
